# Measured values taken from the nanobody polyreactivity screen of Harvey et al. (2022).
# Test: yeast display, Sf9 membrane polyspecificity reagent, FACS + sequencing; frameworks hold sequencing errors
# Outline: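 A synthetic nanobody library was expressed on Saccharomyces cerevisiae BJ5465 by galactose induction for 36–48 hours. The library was stained for 1 hour at 4 °C with 10% biotinylated, detergent-solubilized Sf9 membrane reagent and enriched with streptavidin microbeads before FACS. Low and high (top ~1%) gates were set on anti-HA fluorescence for expression and streptavidin fluorescence for reagent binding, and each polyreactivity label reflects the gate of origin.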
row,Sequence,polyreactivity (PSR sort gate)
1,QGQLVESWGGLVQAGGSLRLSCAATRRTFLYYVMGWYRQAPGKETELVAAITNRGGSTYYADSVKGRFTISRDNAKNNVYVLMKSLKQEDTAVYYSNAPYGVYWSSTYYFWGQGTQVTVSS,high polyreactivity
2,QVQLVESGGGLFQAGGSLRLSCAASGITFHRYDMVWYRQAPGKERELVADITWCGGSTYYADSVKGRFTISRDNAKNTVYLQMNSLKPEDTAVYYCAADASTYTDTPYDYWGQGSQVTVSS,low polyreactivity
3,QVQLVESGGGLVQAGGSLRLSCAASGSIFGLYAMGWYRQAPGKERELVAAINQSGGSTSYADSVKGRFTISRDNAKNTVYLQMNSLKPEDTAVYYCAAKRSWGATRRAYGRYDYWGQGTQVTVSS,low polyreactivity
4,QVQLVESGGGLVQAGGSLRLSCAASGRTFYRYGMGWYRQAPGKEREFVAAITRSGDSTYADSVKGRFTISRDNAKITVYLQMNSLKPEDTAVYYCAKVFLRQYAYRYYYWGQGTQVTVSS,high polyreactivity
5,QVQLVESGGGLVQAGGSLRLSCAASGRTFYLNAMGWYRQAPGKERELVAAISRNGGSTYYADSVKGRFTISRDNAKNTVYLQMNSLKPEDTAVYYCNKNWLGWADPSLDKRYDYWGQGTQVTVSS,high polyreactivity
6,QVQLVESGGGLVQAGGSLRLSCAASGSIFKYYAMGWYRQAPGKERELVAAISTGGTTNYADSVKGRFTISRDNAKKTVYLQMNSLKPDDTAVYYCNRDFLVRSRYKYYYWGQGTQVTVSS,low polyreactivity
7,QVQLVESGGGLVQAGGSLRLSCAASGRIFNVYAMGWYRQAPGKERELVASITSAGSTYYADSVKGRFTISRDNAKNTVYLQMNSLKPEDTPVYDCAADSYSVYYYTYDSWGQGTQVTVSS,low polyreactivity
8,QVQLVESGGGLVQAGGSLRLSCAASGFIFRSYAMGWYRQAPGKERELVAVISRRGVNTHYADSVKGRFTISRDNAKNTVYLQMNSLKPEDTAVYYCAKGLTALGDYWGQGTQVTVSS,high polyreactivity
9,QVQLVESGGGLVQAGGSLRLSCAASGSTQYWNAMGWYRQAPGKERELVAAISRSGGSTYYADSVKGRFTISRDNAKNTVYLQINSLKPEDTAVYYCAARRYVPHTEYYYWGQGTQVTVSS,low polyreactivity
10,QVQLVESGGGLVQAGGSLRLSCAASGSIFDPYAMGWYRQAPGKERELVAAINGGSGSTFYADSVKGRFTISRDNAKNTVYLQMNSLKPEDTAVYYCAAKIWRYSPSYYPEPRGDYWGQGTQVTVSS,low polyreactivity
11,QVQLVESGGGLVQAGGSLRLSCAASGFTFDENAMGWYRQAPGINYSGASTYYADSVKGRFTISRDNAKNTVYFQMNSLKPEDTAVYYCAAEVVAQMNYWGQGTQVTVSS,low polyreactivity
12,QVQLVESGGGLVQAGGSLRLSCAASGSNFGVNAMGGYRQAPGKERELVAAITSGGGTYYTDSVKGRFTISRDNAKKTVYLQKNSLKPEATAVYYCMARVRGKQLVGRYDYWGQGTQVTVSS,high polyreactivity
13,QVQLVESGGGLVQAGGSLRLSCAASGRTSYTNAMGWYRQAPGKERELVAAINYSGGSTYYADSVKGRFTISRDNAKNTVYLQMNSLKPEDIAVYYCAAERYYWYTEMGYWGQGTQGTVSS,high polyreactivity
14,QVQLVESGGGLVQAGGSLRLSCAASGFTFSVYAMGWYRQAPGKERELVASITNGGTTYYADSVKGRFTISRDNAKNTVYLQMNSLKPEDTAVYYCAAKLYSWYHKFVNPTYGYWGQGTQVTVSS,high polyreactivity
15,QVQLVESGGGLVQAGGSLRLSCAASGRNFGSYAMGWSRQAPGKERELVAGIRSVGSTNYADSVKGRFTISRDNAKNTVYLQMNSLKPEDTAVYYCAARLWHLSYAGQGGDYWGQGTQVTVSS,low polyreactivity
16,QVQLQESGGGLVQAGGSLRLSCAASGTITVLYKMGWFRQAPGKEREFFASINYGTSTYYADSVKGRFTVSRDSAKNTVYLQMISLKPEDTAVYYGAAAYRWQDVYRYWGQVTQVTVSS,low polyreactivity
17,QVQLVESGGGLVQAGGSLRLSCAASGLIFGVYAMGWYRQAPGKESELVAAISKNGDRTYYADSVKGRFTISRDNAKNTVYLQMNCLKPEDTAVYYCAAVWARSTYGPYYYWGQGTQVTVSS,high polyreactivity
18,QVQLVESGGVLVQAGGSLRLSCAASGSTFYNNAMGWYRQAPGKERALVATISSGGGSTYYADSVKGRFTISRDNEKNTVYLQMNSLKPEDTAVYYCAAYVLPYGEYDYWGQGTQVTVSS,low polyreactivity
19,QVQLVESGGGLVQAGGSLSLSCAASGRTFLRYAMGWYRQAPGKERELVAAISWSGGRTYYADSVKGRFTISRDNAKNSVYLQMNSLKAEDTAVYYCNNVVLYGALYYYCGQGTQVTVSS,high polyreactivity
20,QVQLVESGGGLVQEGGSLRLICSASGIILGPYAMGWYRQAPGKESELVSAISWRGGSTYYADSVKGRFTISRDNAKNTVYLQMNSLKPEDTAVYYCATASRTSRTGWAVYYWGQGTQVTVSS,high polyreactivity
21,QVQLVESGGGLVQAGGSLRLSCAASGRIFYGNAMGWYRQAPGKERELVASITSSGSTKYADSVKGRFTISRDNAKNTVYLQMNSLKPEDTAVYYCAASYTKRYDTYAGYDYWGQGTQVTVSS,low polyreactivity
22,QVQLVESGGGLVQAGGSLRLSSAASGSIFDKNAMGWYRQAPGKERELVAAIRRTSTTYYADSVKGRFTISRDNAKNTVFLKMNSLKPEDTAVYYCAATYGSGYWYPRYYYWGQGTEVTVSS,high polyreactivity

row,Sequence,polyreactivity (PSR sort gate)
1,QVQLVESGGGLVQAGGSLRLSCAASGITFEYYAMGWYRQAPGKERELVAAISWSGSSTYYADSVKGRFTISRDNAKNTVYLQMNSLKPEDTAVYYCNADSSWWASDDQYDYWGQGTQVTVSS,low polyreactivity
2,QVQLVESGGGLVQAGGSLRLSCDASGRIFQPNVMGWYRQAPGKERELVAAIRSGSSTYYADSVKGRFTISRDNAKNTFYLQMNSLKPEDTAVYYCATRYRKQYKPYEYWGQGTQVTVSS,high polyreactivity
3,QVQLVESWGGIVQAGGILRLSFAAYGRIFASNAMGWYRKAPGKERELVAGISRNGGSTFYEDSVKGRYTISRDTAKNTVYLQMISLKPDDTAVYYCARYYTHSGGYRDRIYYYWGQGTQVTVSS,low polyreactivity
4,QVQLVESGGGLVQAGGSLRLSCAASGRTFGGNAMGWYRQAPGKERELVAAITVSAGHTYYADSVKGRFTISRDNAKNTVYLQMNSLKPEDTAVYYCAAGVPYYWSYVWKHPRYDHWGQGTQVTVSS,low polyreactivity
5,QVQLVESGGGLVQAGGSLRLSCAASGRILVGYAMGRYRQAPGKERELVAAINRSGSSTYYADSVKGRFTISRDNAKNTVYLQRNSLNPEDTAVYYCNAPSGNRYGPRYDYWGQGTQVTVSS,high polyreactivity
6,QVQLLESGGCLVQAGGSLRLSCAASGSTFWHNAMGWYRQAPGKERELVAAISSGSSTYYADSVKGRFTISRDNAKNTVYLQMNSLKPEDTAVYYCAKELYLGYRYWGYYWGQGTQVTVSS,high polyreactivity
7,QVQRVESGGGLVQAGGSLRLSCAASGSTFYDNTMGWYRPAPGKERELVAAITGTGGNTYYADSVKGRFTISRDNAKNTDYLQMNSLKPEDTAVYYWNRVPVYYYRYGYWGQGTQVTVSS,low polyreactivity
8,QVQLVESGGGLVQAGGSLRLSCAASGFTFKSNAMGWYRPSPGKERELVAAITWNGGSTYADSEKGRFTISRDNAKNTVYLQMNSLKPEDTAVYYCAARPYPHSAYEGDYWGRGTQVTVSS,low polyreactivity
9,QVQLVESGGVLVQAGGSLRLSCAASGRIFRNYVMGWYRQAPGKEREMVAAISRSGGSTYYADSVKGRFTISRDNAKNTVYLQMNSLKPEDTAVYYCNAEYASRRVSERDYWGQGTQVTVSS,high polyreactivity
10,QVQLVESGGGLVQAGGSLRLSCAASGYTFSRYAMGWYRQAPGKERELVADISRSGGSTDYADSVKGRFTISRDNAKNTVYLQMNSLKPEETAVYYCAKGSWWGYYSYGFDYWGQGTQVTVSS,high polyreactivity
11,QVQLVESGGGLVQAGGSLRLSCASSGITFGYYAMGWYRQAPGKESELGAARSGSGGSTYYADSVKGRFTISRDNAKNTVSLQMNSLKPEDTAVYDCAAEGPSNTLYWFSWEDYWGQGTQVTVSS,high polyreactivity
12,QVQLVESGGGLVQAGGSRRISWAASGSTFPWNVMGWYRQAPGKERELVAAISSSDGRTYYADSVKGRFTISRDNAKNTVYLQMNSLNPDDTAVDYCAASVAYYWYRTWLFDYDYWGQGTEVTVSS,high polyreactivity
13,QVQLVESGGGLVQAGGSLRLSCAASGRIFGNNVMGWYRQAPGKERELVASINYSGRTYYADSVKGRFTISRDNAKNTVYLQMNSLKPEDTAVYYCAARRYAWFYPYVTYDYWGQGTQVNVSS,high polyreactivity
14,QDQLVESGGGLVQAGASLRLSCAASGSIFYHNTMGWYRQAPGKERELLTYYADSVKRRFTISRDNAKNTVYLQMNSLKPEDTAVYYCAASPVSRTGPGDYDYWGQGTQVTVSS,low polyreactivity
15,QVQLVESGGGLVQAGGSLRLSCAASGSIFSSNTMGWYRQAHGKERELVAAITVSGGRTYYADSVKGRFTISRDNAKNTVYLQMNSLKPEDTAVYYCATRWFGNSYSYRAYDYWGQGTQVTVSS,high polyreactivity
16,QVQLVESGGGLVQAGGSLRLSCAASGSTFRQYPMGWYRQAPGKEREMVAAITWRGDNTYYADSVKGRFTISRDNAKKTVYLQMNSLKPEDTAVYYCAARWSYRLYWGYGYWGQGTQVTVSS,low polyreactivity
17,QVQLVESGGGLVQAGGSLRLSCAASGGIFKRNTMGWYRQAPGKERELGAGISWTGGRTYYADSVKGRFTISRDTAKNTVYLQMNSLKPEDTAVYYCAAKPLQGVRRVEYWGQGTQVTVSS,high polyreactivity
18,QVQLVESGGGLVQAGGSLRLSCAASGRIFDKYTMGWYRQAPGKERELVATITRGGVSMYYADSVKGRFTISRDNAKNTVYLQMNSLKPEDTAVYYCNAVWRLRVRYGYWGQGTQVTVSA,high polyreactivity
19,QVQLVQSGGGLVQAGGSLRLSCAATGSTFRIYAIGWYRQAPGKEREFVAAISDRGGRTYYADSVKGRFTISRDNAKNTVYLQMNSLKPEDTAVYYCAAVKLLSSAPGDDGQMNYWGQGTQVTVSS,low polyreactivity
20,QVQLVESGGGLVQAGGSLRLSCAASGFTFVIYAMGWYRQAPGKERELVAAIRSGGRTYYADSVKGRFTISRDNAKNTVYLQMNSLKPEDTAVYYCAAVPALKWYGYEYWGQGTQVTVSS,high polyreactivity
21,QVQLVESGGGLVQAGGSLRLSCAASGSIFVYNAMGWYRQAPGKERELVAAISQRGGSTYYADSVKGRFTISRDYSKNTVYLQMNSLKPEDTAVYYCAAGPGDSGDDYWGQGTQVTVSS,low polyreactivity
